The source of these data is paper PMC8794819, “Tuning protein half-life in mouse using sequence-defined biopolymers functionalized with lipids” (Proceedings of the National Academy of Sciences of the …, 2022).

Non-standard residues stand in square brackets, D forms with d. alkynyl palmitic acid = FA, attached to pAzF by click chemistry; Phe(4-N3) = [N-]=[N+]=Nc1ccc(C[C@H](N)C(=O)O)cc1

One experiment has as its target T1, mouse serum albumin (mouse, UniProt P07724 25-608).
T1 construct: serum albumin, mouse, from mouse serum; also called MSA; albumin from mouse serum; source: bought: Sigma, catalog #A3139 (albumin from mouse serum)
Description: SPR; Biacore T200; HSA or MSA immobilised by amine coupling on CM5 chip (∼1,300 to 12,800 RU); ELP-GFP derivatives injected, twofold dilution series ∼0.28 to 60 µM; PBS running buffer; 60-s association, 600-s dissociation; steady-state affinity binding model; mean of four to eight independent measurements. To be noted: both partners purified. Background: Surface plasmon resonance follows binding to a sensor surface in real time, without labels.

The target in a further experiment is T2, human serum albumin (human, UniProt P02768 25-609).
T2 construct: serum albumin, human; also called HSA; source: bought: Sigma, catalog #A3782
The experiment is described as above. The following applies: both partners purified.

What is called Kd is the concentration at which binding is half-saturated. Low values mean higher affinity, high ones lower affinity.

T1 sequence (P07724 25-608): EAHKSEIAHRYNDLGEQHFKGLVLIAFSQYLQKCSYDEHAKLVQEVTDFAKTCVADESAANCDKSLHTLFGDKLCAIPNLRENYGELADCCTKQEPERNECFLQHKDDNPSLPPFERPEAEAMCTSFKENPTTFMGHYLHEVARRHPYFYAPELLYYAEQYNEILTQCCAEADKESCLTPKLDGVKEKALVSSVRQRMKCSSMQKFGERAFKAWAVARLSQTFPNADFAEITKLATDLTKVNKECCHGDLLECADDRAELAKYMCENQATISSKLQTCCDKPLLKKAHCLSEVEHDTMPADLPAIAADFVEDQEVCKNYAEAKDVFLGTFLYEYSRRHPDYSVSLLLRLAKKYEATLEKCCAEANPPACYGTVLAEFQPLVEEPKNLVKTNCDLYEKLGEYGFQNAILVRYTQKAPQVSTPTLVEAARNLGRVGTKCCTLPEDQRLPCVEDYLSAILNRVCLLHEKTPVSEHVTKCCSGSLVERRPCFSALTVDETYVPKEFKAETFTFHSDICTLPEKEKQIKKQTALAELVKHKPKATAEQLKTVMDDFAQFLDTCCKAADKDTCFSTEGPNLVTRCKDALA

B1: ELP(10FA)-GFP, ISAz treated (other)
chain: VPGAGVPG[Phe(4-N3)](alkynyl palmitic acid)GVPGGGVPGAGVPG[Phe(4-N3)](alkynyl palmitic acid)GVPGGGVPGAGVPG[Phe(4-N3)](alkynyl palmitic acid)GVPGGGVPGAGVPG[Phe(4-N3)](alkynyl palmitic acid)GVPGGGVPGAGVPG[Phe(4-N3)](alkynyl palmitic acid)GVPGGGVPGAGVPG[Phe(4-N3)](alkynyl palmitic acid)GVPGGGVPGAGVPG[Phe(4-N3)](alkynyl palmitic acid)GVPGGGVPGAGVPG[Phe(4-N3)](alkynyl palmitic acid)GVPGGGVPGAGVPG[Phe(4-N3)](alkynyl palmitic acid)GVPGGGVPGAGVPG[Phe(4-N3)](alkynyl palmitic acid)GVPGGG
modifications: not fully specified (C-terminus); also: pAzF coupled to alkynyl palmitic acid by click (triazole)
As for B1, the Kd came to 2.22 µM with mouse serum albumin and 1.64 µM with human serum albumin.
